How the values were obtained:
Assay in all cases: In vitro binding of neoantigens to class I MHC (UV peptide exchange, HLA class I ELISA)
Settings in all cases: 100% = same binding affinity as positive control peptide
HLA-A*24:02 = HLA-A*24:02 (Homo sapiens, UniProt P04439, D101N/D140Y/D185E/E176V/E190D/F33S/G103R/G107R/I119L/I121M/I306V/K335N/L105A/L180Q/L300P/N151K/N90K/Q86E/Q94H/R106L/R138H/R89G/T104I/T345S/V100E/W191G/Y123F)
Experimental: (§1) The 9 mer peptides identified by bioinformatics analysis were analyzed for their binding propensities to 6 common HLA class I alleles (HLA-A*01:01, A*02:01, A*03:01, A*24:02, B*07:02, B*08:01). The principle of the method is briefly described below and consists of two parts, one involving exchange of peptide with a positive control induced by Ultraviolet (UV) radiation, and the second is an enzyme immunoassay to detect stable HLA-peptide and empty HLA complexes.
(§2) HLA-bound peptides are critical for the stability of the HLA complex.
(§3) The exchange efficiency between the peptide of interest and Pos was analyzed using an HLA class I ELISA. The combined technologies allowed the identification of ligands for an HLA molecule of interest which are potentially immunogenic.
(§4) The UV control represented UV-irradiation of conditional HLA class I complex in the absence of a rescue peptide.
(§5) The HLA class I ELISA is an enzyme immunoassay based on the detection of beta2-microglobulin (B2M) of (peptide-stabilized) HLA class I complexes. To this end streptavidin was bound onto polystyrene microtiter wells. After washing and blocking, HLA complex present in exchange reaction mixtures or ELISA controls was captured by the streptavidin on the microtiter plate via its biotinylated heavy chain. Non-bound material was removed by washing. Subsequently, horseradish peroxidase (HRP)-conjugated antibody to human B2M was added. […] In the latter case B2M was removed during the washing step. After removal of non-bound HRP conjugate by washing, a substrate solution was added to the wells. A coloured product formed in proportion to the amount of intact HLA complex present in the samples. After the reaction was terminated by the addition of a stop solution, absorbance was measured in a microtiter plate reader. […] Suboptimal HLA binding of peptides with a moderate to low affinity for HLA class I molecules can also be detected by this ELISA technique (Rodenko, B et al. (2006) Nature Protocols 1: 1120-32).
(§6) Binding of select neoepitopes to HLA-A*01:01, HLA-A*02:01, HLA-A*03:01, HLA-A*24:02, HLA-B*07:02 and HLA-B*08:01 was evaluated using the assay described in Example 1. […] As a criterion for further evaluation, peptides with an exchange rate of at least […] with the corresponding Pos peptide for at least one of the 6 HLA alleles that we considered for further evaluation. […] Higher percentages correspond to stronger binding to the HLA allele.

HLA-B*07:02 = HLA-B*07:02 (Homo sapiens, UniProt P01889)
Experimental: as §1, §2, §3, §4, §5, §6

HLA-A*02:01 = HLA-A*02:01 (Homo sapiens, UniProt P04439, D140Y/D185E/D98H/E176V/E277Q/G131W/G231S/I119V/I121R/I166T/I218V/L300P/L318F/N151K/N90K/P208A/P217A/Q86G/Q94H/R138H/R169H/T345S)
Experimental: as §1, §2, §3, §4, §5, §6

HLA-A*01:01 = HLA-A*01:01 (Homo sapiens, UniProt P04439, A114D/A174V/A182V/D101N/D185E/E176A/E190D/L180R/Q94H/R68K/S129P/T187R/V100A/V91M/W191G)
Experimental: as §1, §2, §3, §4, §5, §6

HLA-B*08:01 = HLA-B*08:01 (Homo sapiens, UniProt P01889, A93T/A95T/D138N/E176V/E187T/K202T/Q94N/R180D/S35A/V36M/Y33D/Y91F)
Experimental: as §1, §2, §3, §4, §5, §6

HLA-A*03:01 = HLA-A*03:01 (Homo sapiens, UniProt P04439)
Experimental: as §1, §2, §3, §4, §5, §6

Sequence	Exchange rate with the allele specific Pos peptide, HLA-A*24:02 (HLA-A*24:02) [%]	Exchange rate with the allele specific Pos peptide, HLA-B*07:02 (HLA-B*07:02) [%]	Exchange rate with the allele specific Pos peptide, HLA-A*02:01 (HLA-A*02:01) [%]	Exchange rate with the allele specific Pos peptide, HLA-A*01:01 (HLA-A*01:01) [%]	Exchange rate with the allele specific Pos peptide, HLA-B*08:01 (HLA-B*08:01) [%]	Exchange rate with the allele specific Pos peptide, HLA-A*03:01 (HLA-A*03:01) [%]
SLYHREKQLIAMDSAI [Neoantigen P22]	0	8.3	46.9	4.4	3.9	4.8
YEAGMTLGEKFRVGNCKHLKMTRP [Neoantigen P82]	−0.1	12.9	6.3	1.5	1.4	58.1
YEAGMTLGGKILFFLFLLLPLSPFSLIF [Neoantigen P87]	0.2	5	64	1.1	3.1	2.4
